Changes are numbered by the printed parent chain. Names may count otherwise. One block for each binder: values may come before it.
How the values were obtained:
Assay in all cases: FACS on stable HEK293 cells
[1] = biological target: T1, full-length human KLB on HEK293/hKLB/SRE-luc cells (human, UniProt Q86Z14 1-1044)
T1 construct: amino acids 1-1044 of NP_783864.1
T1 sequence: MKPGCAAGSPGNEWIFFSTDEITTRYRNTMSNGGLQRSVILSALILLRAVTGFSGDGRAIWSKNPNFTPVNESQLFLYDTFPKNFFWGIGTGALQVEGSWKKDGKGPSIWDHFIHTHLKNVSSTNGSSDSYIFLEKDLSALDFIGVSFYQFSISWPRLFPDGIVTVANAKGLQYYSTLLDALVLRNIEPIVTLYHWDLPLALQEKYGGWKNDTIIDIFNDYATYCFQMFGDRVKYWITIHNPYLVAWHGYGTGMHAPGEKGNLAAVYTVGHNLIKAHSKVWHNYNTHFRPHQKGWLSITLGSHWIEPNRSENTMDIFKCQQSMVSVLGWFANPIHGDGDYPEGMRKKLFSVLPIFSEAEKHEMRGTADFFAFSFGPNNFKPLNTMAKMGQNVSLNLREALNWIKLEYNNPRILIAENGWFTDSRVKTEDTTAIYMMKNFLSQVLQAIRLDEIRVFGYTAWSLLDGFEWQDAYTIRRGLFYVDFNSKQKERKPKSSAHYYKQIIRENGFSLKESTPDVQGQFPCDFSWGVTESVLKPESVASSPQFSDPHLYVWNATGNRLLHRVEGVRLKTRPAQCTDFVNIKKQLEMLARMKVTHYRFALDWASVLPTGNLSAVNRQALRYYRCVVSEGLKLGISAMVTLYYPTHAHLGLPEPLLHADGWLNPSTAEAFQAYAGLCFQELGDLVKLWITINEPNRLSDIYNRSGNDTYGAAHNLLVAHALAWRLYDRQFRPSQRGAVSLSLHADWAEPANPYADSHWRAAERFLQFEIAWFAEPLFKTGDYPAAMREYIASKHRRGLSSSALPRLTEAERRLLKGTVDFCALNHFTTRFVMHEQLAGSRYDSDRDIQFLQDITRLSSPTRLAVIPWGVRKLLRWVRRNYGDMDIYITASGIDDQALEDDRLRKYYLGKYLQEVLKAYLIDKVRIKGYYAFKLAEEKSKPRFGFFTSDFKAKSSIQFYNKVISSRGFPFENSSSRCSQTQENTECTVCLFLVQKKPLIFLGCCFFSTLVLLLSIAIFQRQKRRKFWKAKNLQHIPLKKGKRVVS
Experimental: (§1) To determine binding specificity of the monoclonal anti-KLB/FGFR1c antibodies, the antibodies were tested in a fluorescence-activated cell sorting (FACS) binding assay to cell lines expressing human FGFR1c, human KLB, and both human FGFR1c and human KLB. HEK293 cell lines were generated that stably express full-length human FGFR1c (hFGFR1c; SEQ ID NO:433) or full-length human KLB (hKLB; SEQ ID NO:434) or both human FGFR1c and human KLB, along with a luciferase reporter [SRE (serum response element)-luciferase, SA Bioscience, #CLS-010L]. The resulting cell lines, referred to as HEK293/hFGFR1c/SRE-luc, HEK293/hKLB/SRE-luc, and HEK293/hKLB/hFGFR1c/SRE-luc, respectively, were maintained in DMEM supplemented with 10% FBS, NEAA, penicillin/streptomycin, 1 μg/mL puromycin and […] hygromycin B, 1 μg/mL puromycin and 500 μg/mL G418, or all three antibiotics.
(§2) For the FACS analysis, HEK293 parental, HEK293/hFGFR1c/SRE-luc, HEK293/hKLB/SRE-luc, and HEK293/hKLB/hFGFR1c/SRE-luc cells were dissociated and plated onto 96-well v-bottom plates at 5 x 10⁵ cells/well in PBS containing 1% FBS. […] Cells were filtered and subsequently analyzed on a Hypercyte Flow Cytometer (Intellicyt Corp.). Unstained and secondary antibody alone controls were also tested for binding to all cell lines. The results were analyzed using FlowJo version 9.52 software and geometric mean (Geom. Mean) of fluorescence for viable cells was determined. Geom. mean of fluorescence for each antibody was then normalized to Geom. mean of unstained cells to obtain relative binding of antibody (binding ratios) per each cell type.

[2] = biological target: T2, full-length human FGFR1c on HEK293/hFGFR1c/SRE-luc cells (human, UniProt P11362 22-822)
T2 construct: amino acids 1-733 of NP_075593
Experimental: as §1, §2

[3] = biological target: T3, human KLB and human FGFR1c co-expressed on HEK293/hKLB/hFGFR1c/SRE-luc cells (human, UniProt Q86Z14 1-1044; P11362 22-822)
T3 construct: two receptors co-expressed on one cell line; also called KLB/FGFR1c coreceptor; FGF21R
Experimental: as §1, §2

T2 sequence (P11362 other isoform, or with tags, fused parts or gaps limits assumed): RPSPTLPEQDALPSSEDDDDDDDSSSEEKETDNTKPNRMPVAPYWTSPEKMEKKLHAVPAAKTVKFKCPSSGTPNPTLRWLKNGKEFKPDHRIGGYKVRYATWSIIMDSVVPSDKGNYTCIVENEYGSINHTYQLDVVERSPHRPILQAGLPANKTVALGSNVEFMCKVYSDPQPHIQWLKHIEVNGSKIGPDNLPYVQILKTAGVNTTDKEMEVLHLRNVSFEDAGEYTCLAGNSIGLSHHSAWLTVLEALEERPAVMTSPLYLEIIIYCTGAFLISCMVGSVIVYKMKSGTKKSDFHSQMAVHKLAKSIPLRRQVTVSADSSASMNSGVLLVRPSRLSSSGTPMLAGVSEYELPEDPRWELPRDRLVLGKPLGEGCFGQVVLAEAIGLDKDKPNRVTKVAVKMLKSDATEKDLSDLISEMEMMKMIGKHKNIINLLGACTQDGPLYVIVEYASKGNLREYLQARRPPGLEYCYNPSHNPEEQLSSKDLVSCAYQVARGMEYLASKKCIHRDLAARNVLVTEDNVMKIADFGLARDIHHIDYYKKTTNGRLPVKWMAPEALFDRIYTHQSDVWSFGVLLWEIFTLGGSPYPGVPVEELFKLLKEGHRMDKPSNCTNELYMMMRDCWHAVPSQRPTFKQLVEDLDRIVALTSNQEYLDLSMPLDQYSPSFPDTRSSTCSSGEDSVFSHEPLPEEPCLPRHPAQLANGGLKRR

binding ratio to unstained cells [1]: 15 fold
binding ratio to unstained cells [2]: 2 fold
binding ratio to unstained cells [3]: 35 fold
B3: H4H8881P (antibody, V domains shown)
VH: QVQLVQSGAEVKKPGASVKVSCKASGYTFTSYVIHWVRQAPGQRLEWMGWSNAANGDTKYSQEFQDRVTFTRDTSASTAYMELSSLRSEDMAVYYCARWNWNYGAFDIWGQGTMVTVSS
VL: DIQMTQSPSSLSASVGDRVTITCQASQDINNYLHWYQQKSGKAPNLLIYDASILETGVPSRFSGSGSGTDFTFTISSLQPEDIATYYCQQYDNLPYTFGQGTKLEIK
notes: human IgG4 Fc (H4H prefix)

binding ratio to unstained cells [1]: 5 fold
binding ratio to unstained cells [2]: 1 fold
binding ratio to unstained cells [3]: 30 fold
B6: H4H8856P (antibody, V domains shown)
VH: QVQLQESGPGLVKPSETLSLTCTVSGGSISSYYWSWIRQPPGKGLEWIAYIYYSGITKYNPSLKSRVTISADTSKNQFSLKLSSVTAADTAVYYCARHGIFGVMEYFQRWGQGTLVTVSS
VL: DIQMTQSPSSLSASIGDRVTITCQASQDISNFLNWYQQKPGKAPTLLIYDVSNMETGVPSRFSGSGYGTDFTLTISSLKPEDIATYYCQQYDNIPLTFGGGTKVEIK
notes: human IgG4 Fc (H4H prefix)

binding ratio to unstained cells [1]: 11 fold
binding ratio to unstained cells [2]: 2 fold
binding ratio to unstained cells [3]: 35 fold
B9: H4H8878P (antibody, V domains shown)
VH: QVQLVESGGGVVQPGRSLRLSCAASGFTLNTYGMHWIRQTPGKGLEWVSLISYDETKEYYVDSVKGRFTISRDNSKNTLYLQMNSVRVEDTAVYYCAKPLTGSTDYYYGLDVWGQGTTVTVSS
VL: DIQMTQSPSYVSASVGDRVIITCRASQDISSWLAWYQQKPGKAPKLLIYVTSSLESGVPSRFSGSGSGTDFTLTISGLQPEDFATYYCQQVKSFPPTFGPGTKVDIK
notes: human IgG4 Fc (H4H prefix)

binding ratio to unstained cells [1]: 15 fold
binding ratio to unstained cells [2]: 1 fold
binding ratio to unstained cells [3]: 41 fold
B10: H2aM8093N (antibody, V domains shown)
VH: QVQLVQSGAEVKRPGSSVKVSCKASGDTFSTYAISWVRQAPGQGLEWMGGIIPVFGTTNYAQKFQDRVTITTDESTRTAYMELSSLRSEDTAVYYCAGIAGPDYWGQGTLVTVSS
VL: DIQMTQSPSSLSASVGDRVTITCRASQGIRNYLAWFQQKPGKAPKSLIYLATSLQSGVPSKFSGSGSGTDFTLTISSLQPEDFATYYCQQYYSYPWTFGQGTKVEIK
notes: mouse IgG2 Fc (H2aM prefix)

binding ratio to unstained cells [1]: 15 fold
binding ratio to unstained cells [2]: 1 fold
binding ratio to unstained cells [3]: 46 fold
B11: H2aM8092N (antibody, V domains shown)
VH: QVQLQESGPGLVKPSETLSLTCTVSGGSISSYYWSWIRQPPGKGLDWIGHIYYSGTTYYNPSLKSRVSISLDTSKNQFSLKLSSVTAADTAVYYCARHLRGYSSGREFDYWGQGTLVTVSS
VL: DIQMTQSPSSLSASVGGRVSLTCRASQSIFSYLNWYQQKPGKAPKLLIYAASNLQSGVPSRFSGSGSGTDFTLTISSLQPEDFATYSCQQSYNIPYTFGQGTKLEIK
notes: mouse IgG2 Fc (H2aM prefix); also called H2M8092N

binding ratio to unstained cells [1]: 2 fold
binding ratio to unstained cells [2]: 6 fold
binding ratio to unstained cells [3]: 7 fold
B13: H2aM8832N (antibody, V domains shown)
VH: QVQLVESGGGVVQPGRSLRLSCAASGFTFSRYGMHWVRQAPGKGLEWVAVIWYDGTNKYYEDSLKGRFTISRDNSKNTLYLQMNSLRAEDSAVYYCARDQGKYIDYWGQGTLVTVSS
VL: AIQMTQSPSSLSASVGDRVTITCRTSQDIRNDLGWYQQKPGKVPNLLIYAASTLQSGVPSRFSGSGSGTDFTLTISSLQPEDFATYYCLQDYNYPFTFGPGTKVDIK
notes: mouse IgG2 Fc (H2aM prefix)

Further lines, the binder ahead of its results:

B1: H1H8897P (antibody, V domains shown)
VH: QVQLVESGGGLVKPGGSLRLSCAAAGFTFSDYYMSWIRQAPGQGLEWVSYISPSGSTTYYADSVQGRFTISRDNAKSSLYLQMNSLRAEDTAVYYCARTGIQLWSVYFDYWGQGTLVTVSS
VL: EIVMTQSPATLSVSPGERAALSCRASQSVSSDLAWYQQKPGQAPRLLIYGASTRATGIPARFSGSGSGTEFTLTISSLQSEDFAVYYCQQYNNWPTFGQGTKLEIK
notes: H1H Fc prefix (human Fc)
binding ratio to unstained cells [1]: 1 fold
binding ratio to unstained cells [2]: 1 fold
binding ratio to unstained cells [3]: 8 fold

B2: H2aM8109N (antibody, V domains shown)
VH: QVQVVESGGGVVQPGRSLRLSCAASGFTFSSYGLHWVRQAPGKGLEWVAVIWHDGSHKYYADSVKGRFTISRDNSKNTLYLQMNSLRAEDTAVYYCARDGIPVAEDYYFYGMDVWGQGTTVTVSS
VL: DIQMTQSPSSLSASVGDRVTITCRASQGIRNDLGWYQQKPGKAPKRLIYAASSLQSGVPSRFSGSGSGTEFTLTISSLQPEDFAIYYCLQHNSLTFGGGTKVEIK
notes: mouse IgG2 Fc (H2aM prefix)
binding ratio to unstained cells [1]: 21 fold
binding ratio to unstained cells [2]: 7 fold
binding ratio to unstained cells [3]: 58 fold

B4: H1M8115N (antibody, V domains shown)
VH: QVQLVQSGAEVKKPGSSVKVSCKASGGTFSTYEISWVRQAPGQGLEWMGGIIPVFGTTHYAQKFQDSVTITTDESTGTAFMELSSLKSEDTAVYYCARGGAGGDNWGQGTLVTVSS
VL: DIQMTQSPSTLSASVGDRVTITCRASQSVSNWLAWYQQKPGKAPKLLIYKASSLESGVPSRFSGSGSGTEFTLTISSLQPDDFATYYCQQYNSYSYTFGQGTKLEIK
notes: H1M Fc prefix (mouse Fc)
binding ratio to unstained cells [1]: 13 fold
binding ratio to unstained cells [2]: 2 fold
binding ratio to unstained cells [3]: 33 fold

B5: H4H8852P (antibody, V domains shown)
VH: B6 VH with A49G, Y53S, T57I
VL: B6 VL with S30G, V51A, Y67S, D70Y, L73F, K79Q, I83V, I94L
notes: human IgG4 Fc (H4H prefix)
binding ratio to unstained cells [1]: 7 fold
binding ratio to unstained cells [2]: 1 fold
binding ratio to unstained cells [3]: 33 fold

B7: H4H8871P (antibody, V domains shown)
VH: B6 VH with G27A, A49G, Y53S, T57I
VL: DIQMTQSPSSLSASIGDRVTITCQASQDIGNFLNWYHQKPGKAPTLLIYDASNMETGVPSRFRGSGSGTYFTFIISSLQPEDVATYYCQQYDNLPLTFGGGTKVEIK
notes: human IgG4 Fc (H4H prefix)
binding ratio to unstained cells [1]: 7 fold
binding ratio to unstained cells [2]: 1 fold
binding ratio to unstained cells [3]: 33 fold

B8: H4H8880P (antibody, V domains shown)
VH: EVQLVESGGGVVQPGGSLRLSCAASGFTFSLYAMSWVRQAPGKGLEWVSAISGSAHGAYYADSVKGRFTISRDNSKNSLYLQMNSLRAEDTAIYYCAKDLVIAVAGTFDYWGQGTLVTVSS
VL: DIQMTQSPSSLSASVGDRVTITCRASQIISTYLNWYQQKPGKAPKILIYTASSLKSGVPSRFSGSGSGTDFTLTISSLQPEDFATYYCQQTYSSPRFTFGPGTKVDIK
notes: human IgG4 Fc (H4H prefix)
binding ratio to unstained cells [1]: 14 fold
binding ratio to unstained cells [2]: 2 fold
binding ratio to unstained cells [3]: 32 fold

B12: H4H8837P (antibody, V domains shown)
VH: QVQLVESGGGVVQPGRSLRLSCAASGFTFNSYAMHWVRQAPGMGLEWVAVISSDGSNKYYADSVRGRFTVSRDNSKNTLYLQMNSLRSEDTAVYYCAKDGRGYSSFSHFGMDVWGQGTTVTVSS
VL: DIQMTQSPSTLSASVGDRVTITCRASQSIGSWLAWYQQKPGKAPKLLIYKTSSLESGVPSRFSGSGSGTEFTLTISSLQPDDFASYYCQQYNSYSFGQGTKVEIK
notes: human IgG4 Fc (H4H prefix)
binding ratio to unstained cells [1]: 13 fold
binding ratio to unstained cells [2]: 2 fold
binding ratio to unstained cells [3]: 33 fold

B14: H2aM8091N (antibody, V domains shown)
VH: QVQLVQSGADMKKPGASVKVSCKASGYTFTTYGINWVRQAPGQGLEWMGWISAYSGITNYAQSFQGRVTMTTDTSTSTAYMELRSLRSDDTAVYYCARGGYNWATGDYFDYWGQGTLVTVSS
VL: DIQMTQSPSTLSASIGDRVTITCRASQSISSWLAWYQQKPGKAPKFLIYKASSLASGVPSRFSGSGSGTEFTLTISSLQPDDFATYYCQQYDSYSPYTFGQGTKVEIK
notes: mouse IgG2 Fc (H2aM prefix); also called H2M8091N
binding ratio to unstained cells [1]: 8 fold
binding ratio to unstained cells [2]: 1 fold
binding ratio to unstained cells [3]: 37 fold

Reference: patent US20170174769A1 (Regeneron, published 2017)
